Data: publication PMC8506132, “Structural and Kinetic Insights Into the Molecular Basis of Salt Tolerance of the Short-Chain Glucose-6-Phosphate Dehydrogenase From Haloferax volcanii” (Frontiers in Microbiology, 2021)

Substrate: NC(=O)c1ccc[n+]([C@@H]2O[C@H](COP(=O)(O)OP(=O)(O)OC[C@H]3O[C@@H](n4cnc5c(N)ncnc54)[C@H](O)[C@@H]3O)[C@@H](O)[C@H]2O)c1
Assay: purified protein
Type: biochemical, Haloferax volcanii
Settings: 2.0 M KCl, G6P co-substrate, pH 7.5, 25 °C, varied: cofactor

B1: HvG6PDH (Haloferax volcanii DS2) (protein)
chain: MDQPVLLTGAGGRVGQAILGHIGDAYDWRLLDREPLSDEKIPDSVDSTEVYVADVTDETAVRNAMDGVHAVIHLAGDPRPEAPWDSVLRNNIDGTQQMFDAAVDVGVEKFAFASSNHAVGAYETTDRTPDMYRPHHEFRLDGTELPRPSNLYGVSKAAGETLGRYYHDHHDISVVNVRIGNLTQHHPPKEYERGQAMWLSYRDCGHLFECCIEADYDYEIVYGISDNDRKYYSIDRARAVLGYDPQDNSAEFTFEGEPLDEA
notes: modelled as dimer
- Km: 280 ± 68 µM
- kcat: 48.5 ± 4.3 s⁻¹
